Earlier results as cited in article PMC6478893.

Biological target: Glu73 (UniProt position 86, GLTFTEKWNTD)

**Q.** For “Voltage-dependent anion channel 1 (VDAC1) (Mus musculus (inferred from the title of ref. 51, 'mVDAC1'; the article text says only 'VDAC1'))”, which pKa is on record?
**A.** Its pKa is ~7.4.
